Columns and labels:
[1] = Stability in saline solution (0.9% NaCl) and human serum by radio-HPLC; assay type: physicochemical; details: in both saline and serum
Method: To evaluate the radiochemical purity, a reversed-phase HPLC system with Waters Millenium 32 software coupled to an in-line UV-Vis and radioactivity detector was used, as previously detailed. To recover free ^225Ac and ^225Ac-HEHA-iPSMA, fractions of 1.0 mL were collected, and the activity quantification was through the 218 keV-gamma emission of Fr-221 by assuming secular equilibrium.

[2] = tested on: HCT116 cells; assay: Proliferation capability (clonogenic) assay; assay type: cell-based, human; details: 2 Gy and 4 Gy tested
Method: HCT116 cell line was used to evaluate the ability of a single cell to form colonies after exposure to ^225Ac-iPSMA-RGD treatment, in triplicate. We seeded 500 cells in each well (six-well plate) and treated them with 4.5 Bq/well (2 Gy), […] (4 Gy), and control (no treatment) for 1 h, dissolved in 2 mL of RPMI medium. After exposure, the treatments and medium were removed and replaced with fresh medium. The plates were incubated for 15 days. Surviving colonies were fixed for 10 min with 4% paraformaldehyde at room temperature and washed with type 1 water. Afterward, they were stained with 0.1% crystal violet for 30 min, washed with purified water, and dried. For quantification, 10% acetic acid was added for 5 min to extract the crystal violet and the absorbance was measured at 590 nm in a microplate absorbance reader (EpochTM; BioTek Instruments, Winooski, VT, USA). Statistical analysis was performed with two-way ANOVA followed by Tukey’s multiple comparisons test using GraphPad Prism 5.0 Software. Data are shown as mean ± SEM. A p < 0.05 was considered statistically significant.

[3] = tested on: HCT116 cells; assay: Apoptosis, Muse Caspase-3/7 kit with 7-AAD, flow cytometry; assay type: cell-based, human
Method: Apoptosis in the colorectal HCT116 cancer cell line was evaluated in triplicate, using the Muse^TM Caspase-3/7 kit, Cat No. MCH100108 (Merck Millipore, Burlington, MA, USA). Briefly, cells were seeded in cell culture flasks at a density of 1 × 10^6 cells and exposed to 4.5 Bq of (2 Gy) and 9.0 Bq […] (4 Gy) of ^225Ac-iPSMA-RGD. Untreated cells were used as the control group and the positive control was prepared through nutrient starvation for 24 h. First, cells were trypsinized and suspended in 50 µL of 1X Assay Buffer BA (1 × 10^6 cells/mL). Then, 5 µL of Caspase-3/7 reagent working solution was added at 37 °C with 5% of CO2 for 30 min. After incubation, 150 µL of Caspase 7-AAD working solution was added to each tube. Finally, tubes were incubated for 5 min, protected from light, and fluorescent intensities were examined by flow cytometry using a Muse Cell Analyzer (Merck Millipore, Burlington, MA, USA) and were conducted in triplicate).

[4] = tested on: HCT116 cells; assay: Reactive oxygen species, Muse Oxidative Stress kit; assay type: cell-based, human; details: for M1 (ROS plot gate) / M2 (ROS plot gate): representative plot
Method: Reactive oxygen species (ROS) were detected with the Muse™ Oxidative Stress kit, (Merck Millipore, Burlington, MA, USA) by measuring the produced intracellular superoxide radicals through dihydroethidium fluorescence. H2O2 (40 nM) was used as the positive control. Briefly, cells were seeded in cell culture flasks at a density of 1 × 10^6 cells and exposed to 4.5 Bq (2 Gy) and 9 Bq (4 Gy) of ^225Ac-iPSMA-RGD. Untreated cells were used as the control group. First, cells were trypsinized and suspended in 10 μL of 1X Assay Buffer. Then 190 μL of the oxidative stress reagent working solution was added to each cell suspension. The suspension was then gently vortexed and incubated at 37 °C with 5% CO2 for 30 min. Fluorescent intensities were examined by flow cytometry using a Muse Cell Analyzer (Merck Millipore, Burlington, MA, USA) and were performed in triplicate. Statistical analysis was performed with two-way ANOVA followed by Tukey’s multiple comparisons test using GraphPad Prism 5.0 Software. Data are shown as mean ± SEM. A p < 0.05 was considered statistically significant.

[5] = tested on: phosphorylated H2A.X in HCT116 cells; assay: DNA double-stranded breaks assay (phosphorylated H2A.X foci); assay type: cell-based, human; details: HCT116, 2 Gy and 4 Gy
Method: For the evaluation of DNA double-stranded breaks (DSBs), the phosphorylation of the Ser-139 gamma histone variant H2A.X (γH2A.X) was used as a biomarker. HCT116 cells were grown on a glass slide after exposure of 4.5 Bq (2 Gy) and 9.0 Bq (4 Gy) of ^225Ac-iPSMA-RGD for 60 min. The anti-phospho-histone H2A.X (ser139) cl 6L16 ZooMAb (Cat. ZRB05636, Merck, Darmstadt, Germany) antibody was used as the primary antibody. […] To quantify the foci, clear and easily distinguishable dots were counted. At least 30 cells were imaged per slide, and the average number of foci per cell was calculated. Statistical analysis was performed with two-way ANOVA followed by Tukey’s multiple comparisons test using GraphPad Prism 5.0 Software. Data are shown as mean ± SEM. A p < 0.05 was considered statistically significant.

[6] = in vivo
Method: All animal procedures followed the Ethical Regulations for the Handling of Laboratory Animals (NOM-062-ZOO-1999) and the requirements of the Institutional Animal Care and Use Committee, according to an approved protocol (CICUAL-08-2018-2021). […] Mice were injected with 3.7 kBq (50 µL) of ^225Ac-iPSMA-RGD and necropsied at 1, 3, 24, 72, and 96 h (n = 3). The liver, heart, kidney, pancreas, lung, spleen, small intestine, and stomach were measured using the Francium-221 photopeak (218 keV) in a hyperpure germanium gamma spectrometer (Ortec, Atlanta, GA, USA). Results were recorded as a percentage of injected dose (%ID) per organ. Blood and bone samples were also dissected, and the associated activity was recorded as %ID/g. A second group of mice was inoculated subcutaneously with 1 × 10^6 HCT116 cells. […] Animals were necropsied on day 11 post-treatment, as described above. Radioisotopic/X-ray ex vivo images of the source organs and tumor were obtained in a preclinical imaging system (Bruker, XTREME, Billerica, MA, USA).

[7] = Absorbed radiation dose estimation (N and dose, OLINDA 2.0); assay type: in vivo, athymic mice
Text: The %ID/organ data were used to calculate the biokinetic models. […] The ^225Ac decay chain was considered for dosimetry. […] DF (dose factor, mGy/MBq) values were obtained from OLINDA 2.0 code (Dose, Gy = NxDF).

[8] = in vitro; details: human, diluted human serum (1:5, v/v)
Method: After adding 200 μL of ^225Ac-iPSMA-RGD to the diluted human serum (1:5, v/v) in a vial (n = 3), the mixture was kept at 37 °C in a dry bath. At 0.5 h, 1 h, and 3 h intervals, 200 μL of each vial was removed and 1 mL of methanol: acetonitrile (1:1, v/v) was added to precipitate the proteins. The total activity was measured in a NaI(Tl) well-type detector by 218 keV gamma emission of Fr-221 and the solution was centrifuged at 3000 rpm for 5 min. The supernatant was then decanted and the pellet measured to determine ^225Ac binding proteins.

For N=C(N)NCCC[C@@H]1NC(=O)[C@H](CCCCNC(=O)CCCN2C(=O)CC(SC[C@H](NC(=O)c3ccc(NNC(=S)Nc4ccc(CC5CN(CC(=O)O)CCN(CC(=O)O)CCN(CC(=O)O)CCN(CC(=O)O)CCN(CC(=O)O)CCN5CC(=O)O)cc4)nc3)C(=O)N[C@@H](Cc3ccc4ccccc4c3)C(=O)NCCCC[C@H](NC(=O)N[C@@H](CCC(=O)O)C(=O)O)C(=O)O)C2=O)NC(=O)[C@@H](Cc2ccccc2)NC(=O)[C@H](CC(=O)O)NC(=O)CNC1=O (some centres unmarked) [^225Ac-iPSMA-RGD, ^225Ac-HEHA-HYNIC-iPSMA-RGD, metal not drawn], the “Decrease of radiochemical purity” value ([1]; 5 h after preparation) was 2%, the “Decrease of radiochemical purity” value ([1]; 24 h after preparation) was 10% and the “Decrease of radiochemical purity” value ([1]; 72 h after preparation) was 30%. The “Reduction of proliferation capability” value [2] was 65%, the “Increase in apoptotic/dead cells” value ([3]; HCT116, 2 Gy) was “approximately 24.6%” and the “Increase in apoptotic/dead cells” value ([3]; HCT116, 4 Gy) was ~31.2%. The “Increase of HCT116 cells with oxidative stress” value ([4]; 4 Gy) was “approximately 30%”, the “M1 (ROS plot gate)” value ([4]; HCT116, 2 Gy) was 90.14% and the “M2 (ROS plot gate)” value ([4]; HCT116, 2 Gy) was 9.82%. The “M1 (ROS plot gate)” value ([4]; HCT116, 4 Gy) was 59.30%, the “M2 (ROS plot gate)” value ([4]; HCT116, 4 Gy) was 40.52% and the “Average foci of phosphorylated H2A.X” value [5] was 19. For the same compound, the Biodistribution pattern ([6]; healthy mice) was “rapid blood clearance with hepatobiliary and renal elimination and no accumulation in other tissue”, the tissue uptake ([6]; male, Nu/Nu, mouse, bone, 3.7 kBq, total radioactivity) was 0.5 ± 0.3 %ID/g and the “Radiation Absorbed Dose, Kidney” value ([7]; athymic mice) was 17.63 Gy/37 kBq. For the same compound, the “Radiation Absorbed Dose, Liver” value ([7]; athymic mice) was 15.85 Gy/37 kBq, the “Radiation Absorbed Dose, Tumor” value ([7]; athymic mice, HCT116 tumor) was 237.07 Gy/37 kBq and the “Total nuclear transformations N=∫t=0t=11dAtdt, Tumor” value ([7]; athymic mice, HCT116 tumor, t = 0 to 11 days) was 7.83 MBq·h. For the same compound, the “Total nuclear transformations N=∫t=0t=11dAtdt, Kidney” value ([7]; athymic mice, t = 0 to 11 days) was 3.52 MBq·h, the “Total nuclear transformations N=∫t=0t=11dAtdt, Liver” value ([7]; athymic mice, t = 0 to 11 days) was 5.23 MBq·h and the “Tumor-to-kidney radiation dose ratio” value ([7]; mice, from Table 1) was “thirteen”. The “Tumor-to-liver radiation dose ratio” value ([7]; mice, from Table 1) was “fifteen” and the fraction unbound at 3 h [8] was 0.923.
